Assay results as given in PMC6344896, “HuR biological function involves RRM3-mediated dimerization and RNA binding by all three RRMs” (Nucleic Acids Research, 2018).

Molecular target: the molecule itself
Assay: SAXS; concentration series in solution without RNA (Trx-RRM3 1.25–10 mg/ml; untagged full-length HuR WT and W261E, lowest 0.5 mg/ml); molecular weights from the Porod volume

B1: Trx-RRM3 (HuR RRM3 fused to the C-terminus of E. coli thioredoxin 1 via a GSAM linker) (domain or fragment, human, UniProt Q15717-1 243-326, looked up)
chain: GWCIFIYNLGQDADEGILWQMFGPFGAVTNVKVIRDFNTNKCKGFGFVTMTNYEEAAMAIASLNGYRLGDKILQVSFKTNKSHK
notes: Human HuR/ELAVL1 (NP_001410.2), third RNA recognition motif; Chain order: E. coli thioredoxin 1, Gly-Ser-Ala-Met, RRM3; Thioredoxin structure 2TRX was used for molecular replacement; also called RRM3-Trx; Trx-RRM3 fusion protein; source: E. coli BL21(DE3), purified; not shown: Trx (E. coli thioredoxin 1, uncleavable GSAM linker), N-terminal, kept
  stoichiometry N: 2
